From publication doi:10.64898/2025.12.20.695652 (bioRxiv, 2025) come the findings set out here.

The test deals with N237_S47D with C-terminal human Fc tag. The test is described as follows: BLI. A general note: Biolayer interferometry detects binding as a change in optical thickness at a sensor tip.

By Kd is commonly meant a measure of binding affinity in units of concentration. “Nipah virus attachment glycoprotein G receptor-binding domain (from UniProt Q9IH62 176-602) (domain or fragment)” returned an equilibrium dissociation constant (Kd) of 3.8 nM.
